Target: Recombinant Human IL-13 (human, UniProt P35225 35-146, limits assumed)
Assay: Biacore SPR
Experimental: The BIACORE assay (GE, Healthcare Piscataway, N.J.) determined the affinity of antibodies or DVD-Ig with kinetic measurements of on-rate and off-rate constants. Binding of antibodies or DVD-Ig proteins to a target antigen (for example, a purified recombinant target antigen) was determined by surface plasmon resonance-based measurements with a Biacore T200 using running HBS-EP+buffer from GE Healthcare at 25° C. All chemicals were obtained from GE Healthcare or otherwise from a different source as described in the text. For example, approximately 5000 RU of goat anti-mouse IgG, (Fcγ), fragment specific polyclonal antibody (Pierce Biotechnology Inc, Rockford, Ill.) diluted in 10 mM sodium acetate (pH 4.5) was directly immobilized across a CM5 research grade biosensor chip using a standard amine coupling kit according to manufacturer's instructions. Unreacted moieties on the biosensor surface were blocked with ethanolamine. Modified carboxymethyl dextran surface in flowcell 1 was used as a reference surface. Rate constants were derived by making kinetic binding measurements at different antigen concentrations ranging from 0.8-100 nM. Binding was recorded as a function of time and kinetic rate constants were calculated. In this assay, association rate was evaluated for 5 min and dissociation was monitored for 10 min. For kinetic screening analysis, rate equations derived from the 1:1 binding model were fitted simultaneously to association and dissociation phases of all injections (using global fit analysis with Rmax fit locally to account for capture variations) with the use of Biaevaluation software. Purified antibodies or DVD-Ig proteins were diluted in HEPES-buffered saline for capture across goat anti-mouse IgG specific reaction surfaces. Antibodies or DVD-Ig proteins to be captured as a ligand were injected over reaction matrices at a flow rate of 5 μl/minute. The association and dissociation rate constants, kₒₙ (M⁻¹ s⁻¹) and koff (s⁻¹) were determined under a continuous flow rate of 50 μl/minute. Rate constants were derived by making kinetic binding measurements at different antigen concentrations ranging from 0.8-100 nM. Binding was recorded as a function of time and kinetic rate constants were calculated. In this assay, association rate was evaluated for 5 min and dissociation was monitored for 10 min.

Sequence of Recombinant Human IL-13 (P35225 35-146 limits assumed): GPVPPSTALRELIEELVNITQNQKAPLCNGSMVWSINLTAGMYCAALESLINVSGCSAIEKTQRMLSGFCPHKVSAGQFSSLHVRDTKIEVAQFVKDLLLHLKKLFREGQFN

| Binder | Kd [pM] | koff [s⁻¹] | kon [M⁻¹ s⁻¹] |
| --- | --- | --- | --- |
| DVD2686 (bispecific antibody, IgG1, DVD-Ig; wt hIgG1 + kappa constants) VH: EVQLVESGGGLVQPGGSLRLSCAASGFTFSNYGVTWVRQAPGKGLEWVSMIWADGSTHYASSVKGRFTISRDNSKNTLYLQMNSLRAEDTAVYYCAREWQHGPVAYWGQGTLVTVSSASTKGPEVTLRESGPGLVKPTQTLTLTCTLYGFSLSTSDMGVDWIRQPPGKGLEWLAHIWWDDVKRYNPALKSRLTISKDTSKNQVVLKLTSVDPVDTATYYCARTVSSGYIYYAMDYWGQGTLVTVSS VL: DIQMTQSPSSLSASVGDRVTITCRASQLVSSAVAWYQQKPGKAPKLLIYWASARHTGVPSRFSGSGSGTDFTLTISSLQPEDFATYYCQQHYKTPFTFGQGTKLEIKRTVAAPSVFIFPPDIQMTQSPSSLSASVGDRVTISCRASQDIRNYLNWYQQKPGKAPKLLIFYTSKLHSGVPSRFSGSGSGTDYTLTISSLQPEDIATYYCQQGLTPPLTFGGGTKVEIKR | 320 | 4.4e-05 | 140000 |
| DVD2687 (bispecific antibody, IgG1, DVD-Ig; wt hIgG1 + kappa constants) VH: EVQLVESGGGLVQPGGSLRLSCAASGFTFSNYGVTWVRQAPGKGLEWVSMIWADGSTHYASSVKGRFTISRDNSKNTLYLQMNSLRAEDTAVYYCAREWQHGPVAYWGQGTLVTVSSASTKGPSVFPLAPEVTLRESGPGLVKPTQTLTLTCTLYGFSLSTSDMGVDWIRQPPGKGLEWLAHIWWDDVKRYNPALKSRLTISKDTSKNQVVLKLTSVDPVDTATYYCARTVSSGYIYYAMDYWGQGTLVTVSS VL: DIQMTQSPSSLSASVGDRVTITCRASQLVSSAVAWYQQKPGKAPKLLIYWASARHTGVPSRFSGSGSGTDFTLTISSLQPEDFATYYCQQHYKTPFTFGQGTKLEIKRTVAAPDIQMTQSPSSLSASVGDRVTISCRASQDIRNYLNWYQQKPGKAPKLLIFYTSKLHSGVPSRFSGSGSGTDYTLTISSLQPEDIATYYCQQGLTPPLTFGGGTKVEIKR | 470 | 5e-05 | 110000 |
| DVD2737 (bispecific antibody, IgG1, DVD-Ig; wt hIgG1 + kappa constants) VH: EVQLVESGGGLVQPGGSLRLSCAASGFTFSNYGVEWVRQAPGKGLEWVSGIWADGSTHYADTVKSRFTISRDNSKNTLYLQMNSLRAEDTAVYYCAREWQHGPVAYWGQGTLVTVSSASTKGPSVFPLAPEVTLRESGPGLVKPTQTLTLTCTLYGFSLSTSDMGVDWIRQPPGKGLEWLAHIWWDDVKRYNPALKSRLTISKDTSKNQVVLKLTSVDPVDTATYYCARTVSSGYIYYAMDYWGQGTLVTVSS VL: DIQMTQSPSSLSASVGDRVTITCKASQLVSSAVAWYQQKPGKAPKLLIYWASTLHTGVPSRFSGSGSGTDFTLTISSLQPEDFATYYCQQHYRTPFTFGQGTKLEIKRTVAAPDIQMTQSPSSLSASVGDRVTISCRASQDIRNYLNWYQQKPGKAPKLLIFYTSKLHSGVPSRFSGSGSGTDYTLTISSLQPEDIATYYCQQGLTPPLTFGGGTKVEIKR | 500 | 6.2e-05 | 120000 |
| DVD3009 (bispecific antibody, IgG1, DVD-Ig; wt hIgG1 + kappa constants) VH: EVQLVQSGAEVKKPGASVKVSCKASGYTFNNYGIIWVRQAPGQGLEWMGWINTYTGKPTYAQKFQGRVTMTTDTSTSTAYMELSSLRSEDTAVYYCARKLFNTVAVTDNAMDYWGQGTTVTVSSASTKGPEVTLRESGPGLVKPTQTLTLTCTLYGFSLSTSDMGVDWIRQPPGKGLEWLAHIWWDDVKRYNPALKSRLTISKDTSKNQVVLKLTSVDPVDTATYYCARTVSSGYIYYAMDYWGQGTLVTVSS VL: DIQMTQSPSSLSASVGDRVTITCRASQDIENYLNWYQQKPGKAPKLLIYYTSRLQSGVPSRFSGSGSGTDFTLTISSLQPEDFATYFCQQGNTQPPTFGQGTKLEIKRTVAAPDIQMTQSPSSLSASVGDRVTISCRASQDIRNYLNWYQQKPGKAPKLLIFYTSKLHSGVPSRFSGSGSGTDYTLTISSLQPEDIATYYCQQGLTPPLTFGGGTKVEIKR | 360 | 3.2e-05 | 87000 |

The next binders have a lower Kd than those just listed; values first:

| Kd [pM] | koff [s⁻¹] | kon [M⁻¹ s⁻¹] | Binder |
| --- | --- | --- | --- |
| 300 | 4.6e-05 | 150000 | DVD2736 (bispecific antibody, IgG1, DVD-Ig; wt hIgG1 + kappa constants) VH: EVQLVESGGGLVQPGGSLRLSCAASGFTFSNYGVEWVRQAPGKGLEWVSGIWADGSTHYADTVKSRFTISRDNSKNTLYLQMNSLRAEDTAVYYCAREWQHGPVAYWGQGTLVTVSSASTKGPEVTLRESGPGLVKPTQTLTLTCTLYGFSLSTSDMGVDWIRQPPGKGLEWLAHIWWDDVKRYNPALKSRLTISKDTSKNQVVLKLTSVDPVDTATYYCARTVSSGYIYYAMDYWGQGTLVTVSS VL: DIQMTQSPSSLSASVGDRVTITCKASQLVSSAVAWYQQKPGKAPKLLIYWASTLHTGVPSRFSGSGSGTDFTLTISSLQPEDFATYYCQQHYRTPFTFGQGTKLEIKRTVAAPSVFIFPPDIQMTQSPSSLSASVGDRVTISCRASQDIRNYLNWYQQKPGKAPKLLIFYTSKLHSGVPSRFSGSGSGTDYTLTISSLQPEDIATYYCQQGLTPPLTFGGGTKVEIKR |
| 140 | 1.5e-05 | 110000 | DVD3008 (bispecific antibody, IgG1, DVD-Ig; wt hIgG1 + kappa constants) VH: EVQLVQSGAEVKKPGASVKVSCKASGYTFNNYGIIWVRQAPGQGLEWMGWINTYTGKPTYAQKFQGRVTMTTDTSTSTAYMELSSLRSEDTAVYYCARKLFNTVAVTDNAMDYWGQGTTVTVSSGGGGSGGGGSEVTLRESGPGLVKPTQTLTLTCTLYGFSLSTSDMGVDWIRQPPGKGLEWLAHIWWDDVKRYNPALKSRLTISKDTSKNQVVLKLTSVDPVDTATYYCARTVSSGYIYYAMDYWGQGTLVTVSS VL: DIQMTQSPSSLSASVGDRVTITCRASQDIENYLNWYQQKPGKAPKLLIYYTSRLQSGVPSRFSGSGSGTDFTLTISSLQPEDFATYFCQQGNTQPPTFGQGTKLEIKRGGSGGGGSGDIQMTQSPSSLSASVGDRVTISCRASQDIRNYLNWYQQKPGKAPKLLIFYTSKLHSGVPSRFSGSGSGTDYTLTISSLQPEDIATYYCQQGLTPPLTFGGGTKVEIKR |
| 130 | 0.00013 | 950000 | DVD2691 (bispecific antibody, IgG1, DVD-Ig; wt hIgG1 + kappa constants) VH: EVTLRESGPGLVKPTQTLTLTCTLYGFSLSTSDMGVDWIRQPPGKGLEWLAHIWWDDVKRYNPALKSRLTISKDTSKNQVVLKLTSVDPVDTATYYCARTVSSGYIYYAMDYWGQGTLVTVSSASTKGPEVQLVESGGGLVQPGGSLRLSCAASGFTFSNYGVTWVRQAPGKGLEWVSMIWADGSTHYASSVKGRFTISRDNSKNTLYLQMNSLRAEDTAVYYCAREWQHGPVAYWGQGTLVTVSS VL: DIQMTQSPSSLSASVGDRVTISCRASQDIRNYLNWYQQKPGKAPKLLIFYTSKLHSGVPSRFSGSGSGTDYTLTISSLQPEDIATYYCQQGLTPPLTFGGGTKVEIKRTVAAPSVFIFPPDIQMTQSPSSLSASVGDRVTITCRASQLVSSAVAWYQQKPGKAPKLLIYWASARHTGVPSRFSGSGSGTDFTLTISSLQPEDFATYYCQQHYKTPFTFGQGTKLEIKR |
| 38 | 2e-06 | 52000 | DVD3083 (bispecific antibody, IgG1, DVD-Ig; wt hIgG1 + kappa constants) VH: EVQLVESGGGLVQPGGSLRLSCAASGFTFSNYGVTWVRQAPGKGLEWVSMIWADGSTHYASSVKGRFTISRDNSKNTLYLQMNSLRAEDTAVYYCAREWQHGPVAYWGQGTLVTVSSGGGGSGGGGSEVQLVQSGAEVKKPGASVKVSCKASGYTFTTYGVSWVRQAPGQGLEWMGEIYPGNYNTYYNEKFRGRVTMTTDTSTSTAYMELRSLRSDDTAVYYCARWRTSYFSDYGYFDYWGQGTTVTVSS VL: DIQMTQSPSSLSASVGDRVTITCRASQLVSSAVAWYQQKPGKAPKLLIYWASARHTGVPSRFSGSGSGTDFTLTISSLQPEDFATYYCQQHYKTPFTFGQGTKLEIKRGGSGGGGSGDVVMTQSPLSLPVTLGQPASISCRSSQSLVHSHGNTYLHWYQQRPGQSPRLLIYTVSNRFSGVPDRFSGSGSGTDFTLKISRVEAEDVGVYYCSQSTHVPYTFGGGTKVEIKR |

Source: US20140271457A1 (AbbVie / Abbott, published 2014)
